In experiment [1] the target is T1, 人源重组C5蛋白 (Sino Biologica, Cat#13416-H18H) (human, UniProt P01031 19-1676).
T1 construct: also called 人源C5蛋白; 全长C5
As to the kind of experiment: BLI (Octet), antibody on AHC sensor, C5 0.4688-30 nM; run no. 3. For orientation: Biolayer interferometry detects binding as a change in optical thickness at a sensor tip.

For experiment [2], the target named is T1, 人源重组C5蛋白 (Sino Biologica, …). Kind of experiment: BLI (Octet), antibody on AHC sensor, C5 0.4688-30 nM; run no. 1.
Experiment [3] shares this target. Kind of experiment: BLI (Octet), antibody on AHC sensor, C5 0.4688-30 nM; run no. 5.
For experiment [4] the target is unchanged. As to the kind of experiment: BLI (Octet), antibody on AHC sensor, C5 0.4688-30 nM; run no. 2.
Experiment [5] shares this target. Kind of experiment: BLI (Octet), antibody on AHC sensor, C5 0.4688-30 nM; run no. 4.

Usually Kd stands for the equilibrium constant for the complex coming apart. Broadly, the koff is the first-order rate constant of dissociation. Usually kon stands for the second-order rate constant of association. Low values mean slower complex formation, high ones faster complex formation.

T1 sequence (P01031 19-1676 limits assumed): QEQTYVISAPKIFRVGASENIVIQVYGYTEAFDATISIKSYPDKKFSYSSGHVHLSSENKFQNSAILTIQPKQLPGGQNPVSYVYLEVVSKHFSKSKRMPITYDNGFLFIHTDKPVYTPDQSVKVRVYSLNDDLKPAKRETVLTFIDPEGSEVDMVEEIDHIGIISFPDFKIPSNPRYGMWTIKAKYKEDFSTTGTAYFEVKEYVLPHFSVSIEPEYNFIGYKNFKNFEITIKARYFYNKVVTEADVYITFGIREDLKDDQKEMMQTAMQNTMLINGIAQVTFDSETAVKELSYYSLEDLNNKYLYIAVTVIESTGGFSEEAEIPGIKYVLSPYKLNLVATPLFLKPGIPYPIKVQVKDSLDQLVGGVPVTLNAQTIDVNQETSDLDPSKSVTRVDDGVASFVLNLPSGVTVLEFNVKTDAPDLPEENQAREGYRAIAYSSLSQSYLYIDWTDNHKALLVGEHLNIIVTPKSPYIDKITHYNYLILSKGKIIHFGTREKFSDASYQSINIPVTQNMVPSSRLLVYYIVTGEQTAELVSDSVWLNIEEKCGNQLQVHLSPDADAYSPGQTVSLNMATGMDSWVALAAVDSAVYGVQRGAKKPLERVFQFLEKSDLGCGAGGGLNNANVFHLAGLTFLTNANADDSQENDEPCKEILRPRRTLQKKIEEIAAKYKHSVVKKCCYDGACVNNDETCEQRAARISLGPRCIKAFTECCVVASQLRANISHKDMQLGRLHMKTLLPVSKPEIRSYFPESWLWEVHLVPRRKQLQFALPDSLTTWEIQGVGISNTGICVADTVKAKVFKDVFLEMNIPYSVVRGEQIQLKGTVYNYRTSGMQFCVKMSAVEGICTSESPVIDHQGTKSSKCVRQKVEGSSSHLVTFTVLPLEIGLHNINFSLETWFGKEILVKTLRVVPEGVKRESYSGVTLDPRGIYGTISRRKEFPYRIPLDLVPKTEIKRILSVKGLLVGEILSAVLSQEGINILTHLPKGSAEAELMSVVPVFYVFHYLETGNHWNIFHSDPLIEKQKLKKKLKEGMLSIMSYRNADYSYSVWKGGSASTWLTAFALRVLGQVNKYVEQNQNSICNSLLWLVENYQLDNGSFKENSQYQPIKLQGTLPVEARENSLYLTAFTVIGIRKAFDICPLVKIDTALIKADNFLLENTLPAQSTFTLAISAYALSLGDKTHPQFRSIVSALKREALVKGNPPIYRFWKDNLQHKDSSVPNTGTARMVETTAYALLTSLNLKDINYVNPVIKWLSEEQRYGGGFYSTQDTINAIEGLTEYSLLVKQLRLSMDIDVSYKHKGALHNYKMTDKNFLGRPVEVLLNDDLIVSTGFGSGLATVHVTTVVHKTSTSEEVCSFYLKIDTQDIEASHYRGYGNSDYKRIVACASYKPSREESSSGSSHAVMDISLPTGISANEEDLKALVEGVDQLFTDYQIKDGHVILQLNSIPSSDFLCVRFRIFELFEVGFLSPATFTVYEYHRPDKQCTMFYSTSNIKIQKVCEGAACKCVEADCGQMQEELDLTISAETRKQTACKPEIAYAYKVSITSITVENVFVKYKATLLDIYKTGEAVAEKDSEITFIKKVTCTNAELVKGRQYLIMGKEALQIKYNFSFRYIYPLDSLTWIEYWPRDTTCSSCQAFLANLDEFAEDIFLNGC

B1: CR3#75/IgG4 (antibody, V domains shown)
VH: EVQLVQSGAEVKKPGATVKISCKVSGYTFTDYYTHWVQQAPGKGLEWMGLVDPEGGETIYAEKFQGRVTITADASTDTAYMELSSLRSEDTAVYYCATGSFLAAPDYWGQGTTVTVSS
VL: not shown
notes: also called 抗C5抗体CR3#75; S125(38#)-3
With B1, the Kd was determined as 0.616 nM in experiment [1]; 0.366 nM in experiment [2]; 0.72 nM in experiment [3]; 0.614 nM in experiment [4]; 0.722 nM in experiment [5]. Also, the koff in experiment [1] was found to be 0.000279 s⁻¹; in experiment [2], 0.000151 s⁻¹; in experiment [3] it was 0.000309 s⁻¹; in experiment [4] it was 0.0003 s⁻¹; in experiment [5] it was 0.000307 s⁻¹. The kon in experiment [1] was found to be 452000 M⁻¹ s⁻¹; in experiment [2], 413000 M⁻¹ s⁻¹; in experiment [3] it was 429000 M⁻¹ s⁻¹; in experiment [4], 488000 M⁻¹ s⁻¹; in experiment [5], 425000 M⁻¹ s⁻¹.

Source of the values: patent publication CN114149501A (TENCEL BIOMEDICINE CO LTD, dated 2022).
